Source: the RNAGym collection of RNA variant scans (doi:10.7554/elife.90254)

B1: OR4K15 (parent)
chain: GUUAACGGUCAUAGGCCAUGGAAACUAGGAGCACCAUUUCGCUGCCAGUGAAGAAAUGAACAAAGAAAAUCUGGGCCAGGCAGGCAUCAAAAGAAAUAGUCUUGCGCUCAACCAGAAAGUCUGUAAUCAUUUUAAGGGUA

Variants of: B1
Experiment: self-cleavage, relative activity (ratio to wild type); higher = more cleavage; in vitro, sequencing; the parent is a self-cleaving ribozyme

Variant	self-cleavage
GUUAACGGUCGUAGGCCAUGGAAACUAGGAGCACCAUUUCGCUGCCAGUGAAGAAAUGAACAAAGAAAAUCUGGGCCAGGCAGGCAUCAAAAGAAAUAGUCUUGCGCUCAACCAGAAGGUCUGUAAUCAUUUUAAGGGUA [A11G A118G]	1.02
GUUAACGGUCAUAGGCCAUGGAAACUAGGAGCACCAUUUCGCUGCAAGUGAAGAAAUGAACAAAGAAAAUCUGGGCCAGGCAGGCAUCAAAAGAAAUAGUCUUGCGCUCUACCAGAAAGUCUGUAAUCAUUUUAAGGGUA [C46A A110U]	1.53
GUUAACGGCCAUAGGCCAUGGAAACUAGGAGCACCAUUUCGCUGCCAGUGAAGAAAUGAACAAAGAAAAUCUGGGCCAGGCAGGCAUCAAAAGAAAUGGUCUUGCGCUCAACCAGAAAGUCUGUAAUCAUUUUAAGGGUA [U9C A98G]	0.22
GCUAACGGUCAUAGGCCAUGGAAACUAGGAGCACCAUUUCGCUGCCAGUUAAGAAAUGAACAAAGAAAAUCUGGGCCAGGCAGGCAUCAAAAGAAAUAGUCUUGCGCUCAACCAGAAAGUCUGUAAUCAUUUUAAGGGUA [U2C G50U]	1.13
GUUAACGGUCAUAGGCCAUGGAAACUAGGAGCACCAUUUCGCUGCCAGUGAAGAAAUGAACAAGGAAAAUCUGGGCCAGGCAGGCAUCAAAAGAAAUAGUCUUGCACUCAACCAGAAAGUCUGUAAUCAUUUUAAGGGUA [A64G G106A]	0.04
GUUAACGGUCAUAGGCCAUGGAAACCAGGAGCACCAUUUCGCUGCCAGUGAAGAAAUGAACAAAGAAAAUCUGGGCCAGGCAGGCAUCAAAAGAAUUAGUCUUGCGCUCAACCAGAAAGUCUGUAAUCAUUUUAAGGGUA [U26C A96U]	1.89
GUUAACGGUCAUAGGCCAUGGAAACUAGGAGCACCAUUUCGCUGCCAGUGAAGAAAUGAACAAAGAAAAUCUGGGCCAGGCAGGCAUCAAAAGAAAUAGUCUUGCGCUCAACCAGAAGGUAUGUAAUCAUUUUAAGGGUA [A118G C121A]	2.97
GUUAACGGUCAUAGGCCAUGGAAACUAGGAGCACCAUUUCGCUGCCAGUGAAGAAAUGAACAAAGAAAAUCUGGGCCAGGCAGGCAUCCAAAGAAAUAGUCUUGCGCUCAACCAGUAAGUCUGUAAUCAUUUUAAGGGUA [A89C A116U]	0.32
GUUAACGGUCAUAGGCCAUGGAAACUAGGAGCGCCAUUUCGCUGCCAGUGAAGAAAUGAACAAAGAAAAACUGGGCCAGGCAGGCAUCAAAAGAAAUAGUCUUGCGCUCAACCAGAAAGUCUGUAAUCAUUUUAAGGGUA [A33G U70A]	0.5
GUUAACGGUCAUAGGCCAUGGAAACUAGGAGCACCAUUUCGCUGCCAGUGUAGAAAUAAACAAAGAAAAUCUGGGCCAGGCAGGCAUCAAAAGAAAUAGUCUUGCGCUCAACCAGAAAGUCUGUAAUCAUUUUAAGGGUA [A51U G58A]	1.56
GUUAACGGACAUAGGCCAUGGAAACUAGGAGCACCAUUUCGCUGCCAGUGAAGAAAUGAACAAAGAAAAUCUGGGCCGGGCAGGCAUCAAAAGAAAUAGUCUUGCGCUCAACCAGAAAGUCUGUAAUCAUUUUAAGGGUA [U9A A78G]	0.32
GUUAACGGUCAUAGGCCAUGGAAACUAGGAGCACCAUUUCGCUGCCAGUGAAGAAAUGAACAAAGAAAAUCUGGGCCAGGCAGGCAUCAGAAGAAAUAGUCUUGCGCUCAACCAGAAAGUCUGUAAUCAUUCUAAGGGUA [A90G U132C]	1.12
GUUAACGGUCAUAGGCCAUGGAAACUAGGAGCACCAUUUCACUGCCAGUGAAGAAAUGAACAAGGAAAAUCUGGGCCAGGCAGGCAUCAAAAGAAAUAGUCUUGCGCUCAACCAGAAAGUCUGUAAUCAUUUUAAGGGUA [G41A A64G]	2.12
GUUAGCGGUCAUAGGCCAUGGAAACUAGGAGCACCAUUUCGCUGCCAGUGAAGAAAUAAACAAAGAAAAUCUGGGCCAGGCAGGCAUCAAAAGAAAUAGUCUUGCGCUCAACCAGAAAGUCUGUAAUCAUUUUAAGGGUA [A5G G58A]	1.07
GUUAACGGUCAUAGGCCAUGGAAACUAGGAGCACCAUUUCGCUGCCAGUGAAGAAAUGAACAAAGAAGAUCUGGGCCAGGCAGGCAUCAAAAGAAAUAGUCUUGCGCUCAACCAGAGAGUCUGUAAUCAUUUUAAGGGUA [A68G A117G]	2
GUUAACGGUCAUAGGCCAUGGAAACUAGGAGCACCAUUCCGCUGCCAGUGAAGAAAUGAACAAAGAAAAUCUGGGCCAGGCAGGCAUCAAAAGAAAUAGUCUUGCGCUCAACCAGAAAGUCUGUAAUCAUUUUGAGGGUA [U39C A134G]	1.83
GUUAACGGUCAUAGGCCAUGGAAACUAGGAGCACCAUUUCGCUGCCAGCGAAGAAAUGAACAAAGAAAAUCUGGGCCAGGCAGGCAUCAAUAGAAAUAGUCUUGCGCUCAACCAGAAAGUCUGUAAUCAUUUUAAGGGUA [U49C A91U]	1.68
GUUAACGGUCAUAGGCCAUGGAAACUAGGAGCACCAUUUCGCUGCCAGUGAAGAAAUGAACAAAGAAAAUCUGGGCCAGGCAGGCAUCAGAAGAAAUAGUCUUGCGCUCAACCUGAAAGUCUGUAAUCAUUUUAAGGGUA [A90G A114U]	0.02
GUUAACGGUCAUAGGCCAUGGAAGCUAGGAGCACCAUUUCGCCGCCAGUGAAGAAAUGAACAAAGAAAAUCUGGGCCAGGCAGGCAUCAAAAGAAAUAGUCUUGCGCUCAACCAGAAAGUCUGUAAUCAUUUUAAGGGUA [A24G U43C]	1.37
GUUAACGGUCAUAGGCCAUGGAAACUAGGAGCACCAUUUCGCUGCCAGUGAAGAAAUGAACAAAGAAAAUUUGGGCCAGGCAGGCAACAAAAGAAAUAGUCUUGCGCUCAACCAGAAAGUCUGUAAUCAUUUUAAGGGUA [C71U U87A]	0.61
GUUAACGGUCAUAGGCCAUGGAAACAAGGAGCACCAUUUCGCUGCCAGUGAAGAAAUGAACAAAGAAAAUCUGGGCCAGGCAGGCAUCAAAAGAAAUAGUCUUGCGCUCAACCAGAAGGUCUGUAAUCAUUUUAAGGGUA [U26A A118G]	0.34

Variant	self-cleavage
GUUAACGGUCAUAGGCCAUGGAAACUAGGAACACCAUUUCGCUGCCAGUGAAGAAAUGAACAAAGAAAAUCUGGGCCAGGCAGGCAUCAAAAGAAAUAGUCUUGCGCUCAACCAGAAAGUCUGUAAUCAUUUUAAGGGUA [G31A]	1.52
GUUAACGGUCAUAGGCCAUGGAAACUAGGAGCACCAUUUCGCUGCCAGUGAAGAAAUGAACAAAGAAAAUCUGGGCCAGGCAGGCAUCAAAAGGAAUAGUCUUGCGCUCAACCAGAAAGUCUGUAUUCAUUUUAAGGGUA [A94G A126U]	1.08
GUUAACGGUCAUAGGCCAUGGAAACUAGGAGCACCAUUUCGCUGCCAGUGAAGAAAUGAUCAAAGAAAACCUGGGCCAGGCAGGCAUCAAAAGAAAUAGUCUUGCGCUCAACCAGAAAGUCUGUAAUCAUUUUAAGGGUA [A60U U70C]	1.72
GUUAACGGUCAUAGGCCAUGGAAACUAGGAGCACCAUUUCGCUGCCAGUGAAGAAAUGAACAAAGGAAAUCUGGGCAAGGCAGGCAUCAAAAGAAAUAGUCUUGCGCUCAACCAGAAAGUCUGUAAUCAUUUUAAGGGUA [A66G C77A]	0.91
GUUAACGGUCAUAGGCCAUGGAAACUAGGAGCACCAUUUCGCUGCCAGUGAAGAAAUGAACAAAGAAAAUCUGGGCCAGGCAGGCAUCAAAAGAAAUAGUCUUGCGCUCAACCAGAAAGUCUGCAAUCAUUUUAAGGGUA [U124C]	0.62
GUUAACGGUCAUAGGCCAUGGAAACUAGGAGCACCAUUUCGCUGCCAGUGAAGAAAUGAACAAAGUAAAUCUGGGCCAGGCAGGCAUCAGAAGAAAUAGUCUUGCGCUCAACCAGAAAGUCUGUAAUCAUUUUAAGGGUA [A66U A90G]	1.22
GUUAACGGUCAUAGGCCAUGGGAACUAGGAGCACCAUUUCGCUGCCAGUGAAGAAAUGAACAAAGAAAAUCUGGGCCAGGCAGGCAUCAAAAGAAAUAGUCUUGCGCUCAACCAGAAAGUCGGUAAUCAUUUUAAGGGUA [A22G U122G]	1.67
GUUAACGGUCAUAGGCCAUGGAAACUAGGAGCACCAUUUCGCUGCCAGUGAAGAAAUGAACAAAGAAAAUCUGGCCCAGGCAGGCAUCAAAAGAAAUAGUCUAGCGCUCAACCAGAAAGUCUGUAAUCAUUUUAAGGGUA [G75C U103A]	0.01
GUUAACGGUCAUAGGCCAUGGAAACUAGGAGCACCACUUCGCUGCCAGUGAAGAAAUGAACAAAGAAAAUCUGGGCCAGGUAGGCAUCAAAAGAAAUAGUCUUGCGCUCAACCAGAAAGUCUGUAAUCAUUUUAAGGGUA [U37C C81U]	0.49
GUUAACGGUCAUAGGCCAUGGAAACUAGGAGCACCAUUUCGCUGCCAGUGAAGAAAUGAACAAAGAAAAUCUGGGCCAGGCAGGCAUCAAAAGAAAUAGUCUUGCGCUCAACCAGAAAGUCUGUACUCAUUCUAAGGGUA [A126C U132C]	0.5
GUUAACGGUCAUAGGCCAUGGAAACUAGGAGCACCAUUUCGCUGCCAGUGAAGGAAUGAACAAAGAAAAUCUGGGCCAGGCAGGCAUCAAAAGAAAUAGUCUUGCACUCAACCAGAAAGUCUGUAAUCAUUUUAAGGGUA [A54G G106A]	0.02
GUUAUCGGUCAUAGGCCAUGGAAACUAGGAGCACCAUUUCGCUGCCAGUGAAGAAAUGAACAAAGAAAAUCUGGGCCAGGCAGGCAUCAAAAGAAAUAGUCUUGCGCUCAACCAGAAAGUCUGUAAUCGUUUUAAGGGUA [A5U A129G]	0.79
GUUAACGGUCAUAGGCCAUGGAGACUAGGAGCACCAUUUCGCUGCCAGUGAAGAAAUGAACAAAGAAAAUCUGGGCUAGGCAGGCAUCAAAAGAAAUAGUCUUGCGCUCAACCAGAAAGUCUGUAAUCAUUUUAAGGGUA [A23G C77U]	2.07
GUUAACGGUCAUAGGCCAUGGAAACUAGGAGCACCAUUUCGCUGCCAGUGAAGAAAUGAACAAAGAAAAUCUGGGCCAGGCAGGCAACAAAAGAAAUAGUCUUGCGCUCAACCCGAAAGUCUGUAAUCAUUUUAAGGGUA [U87A A114C]	0.05
GUUAACGGUCAUAGGCCAUGGAAACUAGGAGCACCAUUUCGCUGCCAGUGAGGAAAUGAACAAAGAAAAUCUGGGCCAGGCAGGCAUCAUAAGAAAUAGUCUUGCGCUCAACCAGAAAGUCUGUAAUCAUUUUAAGGGUA [A52G A90U]	1.81
GUUAACGGUCAUAGGCCAUGGAAACUAGGAGCACCAUUUCGCUGCCAGUGAAGAAAUGAACAAAGAAAAUCUGGGCCAGGCAGGCAUCAAAAGAAAUAGUCUUGCGCUCAACCAGAAUGUCUGCAAUCAUUUUAAGGGUA [A118U U124C]	0.45
GUUAACGGUCAUAGGCCAUGGAAACUAGGAGCACCAUUUCGCUGCCAGUGAAGAAAUGAACAAAGAAAAUCUGGGCCAGGCAGGCAUCAAAAGAAAUAGUCUUGCGCUCAACCAGAAAGUCUGUGAUCGUUUUAAGGGUA [A125G A129G]	0.41
GUUAACGGUCAUAGUCCAUGGAAACUAGGAGCACCAUUUCGCUGCCAGUGAAGAAAUGAACAAAGAAAAUCUGGGCCAGGCAGGCAUCAAAAGAAAUAGUCUUGCGCUCAACCAGAAAGUCUGUAAUCAUUUUAAAGGUA [G15U G136A]	2.24
GUUAACGGUCAUAGGCCAUGGAAACUAGGAGCACCAUUUCGCUGCCGGUGAAGAAAUGAACAAAGAAAAUCUGGGCCAGGCAGGCAUCAAAAGAAAUAGUCUUGCGCUCAACCAGAAAGUCUGUAAUCAUUUCAAGGGUA [A47G U133C]	1.99
GUUAACGGUCAUAGGCCAUGGAAACUAGGAGCACCAUUUCGCUGCCAGUGAAAAAAUGAACAAAGAAAAUCUGGGCCAGGCAGGCAUCUAAAGAAAUAGUCUUGCGCUCAACCAGAAAGUCUGUAAUCAUUUUAAGGGUA [G53A A89U]	2.31
